{
  "source": "paper PMC10501769",
  "about": "(eLife, 2023)",
  "proteins": {"B1": {"name": "His-tagged Rv0158 protein of Mycobacterium tuberculosis H37Rv (natural protein)", "chain": "MPSDTSPNGLSRREELLAVATKLFAARGYHGTRMDDVADVIGLNKATVYHYYASKSLILFDIYRQAAEGTLAAVHDDPSWTAREALYQYTVRLLTAIASNPERAAVYFQEQPYITEWFTSEQVAEVREKEQQVYEHVHGLIDRGIASGEFYECDSHVVALGYIGMTLGSYRWLRPSGRRTAKEIAAEFSTALLRGLIRDESIRNQSPLGTRKET", "notes": "also called Histidine-tagged Rv0158; hexahistidine-tagged Rv0158 protein"}},
  "biological_target": "the molecule itself",
  "test": "SEC",
  "data": [
    {"protein": "B1", "values": [
      {"measurement": "stoichiometry N", "value": 2}
    ]}
  ]
}
